Experimental findings from article PMC8037251, “Molecular Characterization of the Extracellular Domain of Human Junctional Adhesion Proteins” (International Journal of Molecular Sciences, 2021) are described below.

B1: MBP-fused extracellular domain of human JAM-B (Gly28-Ser238) (domain or fragment, UniProt P57087 28-238, looked up)
chain: GFSAPKDQQVVTAVEYQEAILACKTPKKTVSSRLEWKKLGRSVSFVYYQQTLQGDFKNRAEMIDFNIRIKNVTRSDAGKYRCEVSAPSEQGQNLEEDTVTLEVLVAPAVPSCEVPSSALSGTVVELRCQDKEGNPAPEYTWFKDGIRLLENPRLGSQSTNSSYTMNTKTGTLQFNTVSKLDTGEYSCEARNSVGYRRCPGKRMQVDDLNIS
notes: JAM-B, human, extracellular domain, Gly28-Ser238 of P57087; No protease site between MBP and the target in the final design; Octamer by size exclusion; also called junctional adhesion molecule B; source: E. coli SHuffle T7 Express, purified (amylose resin, size exclusion chromatography); not shown: MBP, N-terminal, kept
B4: MBP-fused extracellular domain of human JAM-A (Gly27-Arg228) (domain or fragment, UniProt Q9Y624 27-228, looked up)
chain: GSVTVHSSEPEVRIPENNPVKLSCAYSGFSSPRVEWKFDQGDTTRLVCYNNKITASYEDRVTFLPTGITFKSVTREDTGTYTCMVSEEGGNSYGEVKVKLIVLVPPSKPTVNIPSSATIGNRAVLTCSEQDGSPPSEYTWFKDGIVMPTNPKSTRAFSNSSYVLNPTTGELVFDPLSASDTGEYSCEARNGYGTPMTSNAVR
notes: JAM-A, human, extracellular domain, Gly27-Arg228 of Q9Y624; No protease site between MBP and the target in the final design (pET28a-MBP, NdeI/XhoI); also called junctional adhesion molecule A; source: E. coli SHuffle T7 Express, purified (amylose resin, size exclusion chromatography); not shown: MBP, N-terminal, kept
B5: MBP-fused extracellular domain of human JAM4 (Gly34-Arg286) (domain or fragment, UniProt Q9NSI5 34-286, looked up)
chain: GSGSGNEVIEGPQNARVLKGSQARFNCTVSQGWKLIMWALSDMVVLSVRPMEPIITNDRFTSQRYDQGGNFTSEMIIHNVEPSDSGNIRCSLQNSRLHGSAYLTVQVMGELFIPSVNLVVAENEPCEVTCLPSHWTRLPDISWELGLLVSHSSYYFVPEPSDLQSAVSILALTPQSNGTLTCVATWKSLKARKSATVNLTVIRCPQDTGGGINIPGVLSSLPSLGFSLPTWGKVGLGLAGTMLLTPTCTLTIR
notes: JAM4, human, extracellular domain, Gly34-Arg286 of Q9NSI5; No protease site between MBP and the target in the final design; Decamer by size exclusion; source: E. coli SHuffle T7 Express, purified (amylose resin, size exclusion chromatography); not shown: MBP, N-terminal, kept

Data set [1] concerns the molecule itself. As to the kind of experiment: SEC; ENrich SEC 650 10 x 300 column, PBS as running buffer; peak positions compared with BioRad size exclusion standards; oligomeric state of the MBP fusion.
Data set [2] concerns the molecule itself. Nature of the data set: SPR; OpenSPR (Nicoya), ligand protein (0.100 mg) amine-coupled to a Carboxy sensor chip; 1 M sodium caprate injected to disrupt preformed interactions and after each analyte; analyte 12.5-100 ug per 200 uL injection, triplicate; global fit, 1:1 Langmuir model, TraceDraw. (In general: In SPR one partner is held on a chip, and binding of the other changes the refractive index at the surface.)

Data set [3] has as its target B5. The description is as above. The conditions noted are these: both partners purified.
For data set [4], the target named is B4. Nature of the data set: SPR; as the other SPR (OpenSPR, amine-coupled ligand on a Carboxy chip, caprate between injections, 1:1 Langmuir fit) but in the presence of 3 mM CaCl2 (E-CAD experiments). The settings on record: both partners purified.
Data set [5] deals with the molecule itself. The data set is described as above.
For data set [6], the target named is B1. As to the kind of experiment: SPR; OpenSPR (Nicoya), ligand protein (0.100 mg) amine-coupled to a Carboxy sensor chip; 1 M sodium caprate injected to disrupt preformed interactions and after each analyte; analyte 12.5-100 ug per 200 uL injection, triplicate; global fit, 1:1 Langmuir model, TraceDraw. The conditions noted are these: both partners purified.

Turning to B1, the stoichiometry N (as a rule, the number of molecules, sites or subunits per partner or assembly) in data set [1] was 8. Also, in data set [2], the Kd (in general, the free concentration of one partner at which half of the binding sites on the other are occupied at equilibrium, for simple one-to-one binding) is 9.97 nM; the off-rate constant (koff) (in general, the first-order rate constant of dissociation) was 5.36e-05 s⁻¹; the kon (in general, the rate constant with which the complex forms) was 4800 M⁻¹ s⁻¹. For the same molecule, in data set [3], the Kd amounted to 159 nM, the koff stood at 0.000128 s⁻¹ and the on-rate (kon) was 1210 M⁻¹ s⁻¹.

B2: MBP-fused extracellular domain of human epithelial cadherin (Val102-Asp312) (domain or fragment)
chain: VIPPISCPENEKGPFPKNLVQIKSNKDKEGKVFYSITGQGADTPPVGVFIIERETGWLKVTEPLDRERIATYTLFSHAVSSNGNAVEDPMEILITVTDQNDNKPEFTQEVFKGSVMEGALPGTSVMEVTATDADDDVNTYNAAIAYTILSQDPELPDKNMFTINRNTGVISVVTTGLDRESFPTYTLVVQAADLQGEGLSTTATAVITVTD
Consider B2, for which, in data set [1], the “stoichiometry N” value was 2. Further, in data set [4], the Kd was 308 nM, the koff was determined as 0.000708 s⁻¹ and the kon worked out at 2340 M⁻¹ s⁻¹. In data set [5], the Kd is 197 nM, the off-rate constant (koff) was determined as 0.000696 s⁻¹ and the kon came to 4650 M⁻¹ s⁻¹.

B3: MBP-fused extracellular domain of human JAM-C (Gly30-Glu236) (domain or fragment, UniProt Q9BX67 30-236, looked up)
chain: GAVNLKSSNRTPVVQEFESVELSCIITDSQTSDPRIEWKKIQDEQTTYVFFDNKIQGDLAGRAEILGKTSLKIWNVTRRDSALYRCEVVARNDRKEIDEIVIELTVQVKPVTPVCRVPKAVPVGKMATLHCQESEGHPRPHYSWYRNDVPLPTDSRANPRFRNSSFHLNSETGTLVFTAVHKDDSGQYYCIASNDAGSARCEEQEME
notes: JAM-C, human, extracellular domain, Gly30-Glu236 of Q9BX67; No protease site between MBP and the target in the final design; Tetramer by size exclusion; also called junctional adhesion molecule C; source: E. coli SHuffle T7 Express, purified (amylose resin, size exclusion chromatography); not shown: MBP, N-terminal, kept
For B3, in data set [1], the “stoichiometry N” value worked out at 4. In data set [6], the Kd turned out to be 0.203 nM, the koff was 1.76e-05 s⁻¹ and the on-rate (kon) was 85400 M⁻¹ s⁻¹. In data set [2], this molecule registered a Kd of 30.2 nM, a koff of 2.26e-05 s⁻¹ and a kon of 782 M⁻¹ s⁻¹. Moreover, in data set [3], the affinity, expressed as Kd, was 0.0925 nM; the koff stood at 1.96e-07 s⁻¹; the kon was found to be 2030 M⁻¹ s⁻¹.

Turning to B4, the “stoichiometry N” value in data set [1] was 2. In data set [6], this molecule gave a Kd of 2.82 nM, a koff of 5.09e-05 s⁻¹ and a kon of 16500 M⁻¹ s⁻¹. Further, in data set [2], the affinity, expressed as Kd, was 76.6 nM; the koff was found to be 0.000838 s⁻¹; the kon came out at 13100 M⁻¹ s⁻¹. For the same molecule, in data set [3], the affinity, expressed as Kd, was 2.33 nM; the koff came out at 4.09e-06 s⁻¹; the kon was found to be 1600 M⁻¹ s⁻¹.

For the molecule B5, the “stoichiometry N” value in data set [1] came out at 10. In data set [2], the Kd turned out to be 0.139 nM, the koff is 2.04e-07 s⁻¹ and the kon was found to be 1670 M⁻¹ s⁻¹.
